Measured values taken from PMC6851183, “Computational design and characterization of nanobody-derived peptides that stabilize the active conformation of the β2-adrenergic receptor (β2-AR)” (Scientific Reports, 2019).

Legend:
[1] = target: T1, C-terminal GFP2-tagged β2-adrenergic receptor (β2-AR/GFP2) (human, UniProt P07550 1-413); assay: MST; lysate of HEK-293 cells with β2-AR/GFP2 kept constant as fluorescent target, P3 titrated in 1:1 dilutions, no agonist; MST buffer with 0.05% Tween 20, 25 °C; EC50 from bound fraction; conditions: one partner purified
T1 construct: human β2-adrenergic receptor; not shown: GFP2, C-terminal, kept

[2] = target: T1, C-terminal GFP2-tagged β2-adrenergic …; assay: MST; lysate of HEK-293 cells with β2-AR/GFP2 kept constant as fluorescent target, P3 titrated in 1:1 dilutions, in the presence of 10 µM isoproterenol; MST buffer with 0.05% Tween 20, 25 °C; EC50 from bound fraction; conditions: one partner purified

EC50 [1]: 58.2 ± 13.6 µM
EC50 [2]: 3.57 ± 0.81 µM
B1: P3, nanobody-derived peptide (NDP) of Nb71 (peptide)
peptide: EDTAVYYCNANWDLLSD
notes: 17 aa stretch of the nanobody Nb71 (amino acid residues 88-104, includes CDR3), picked by computational peptide scanning; numbers count on Nb71; source: synthetic peptide, custom-synthesized at Biomatik Corporation
